Measurements reported in US20030165934.

Target: T1, recombinant human Rad17 protein tagged with a Flag epitope at its N terminus, purified from baculovirus infected insect cells
T1 chain: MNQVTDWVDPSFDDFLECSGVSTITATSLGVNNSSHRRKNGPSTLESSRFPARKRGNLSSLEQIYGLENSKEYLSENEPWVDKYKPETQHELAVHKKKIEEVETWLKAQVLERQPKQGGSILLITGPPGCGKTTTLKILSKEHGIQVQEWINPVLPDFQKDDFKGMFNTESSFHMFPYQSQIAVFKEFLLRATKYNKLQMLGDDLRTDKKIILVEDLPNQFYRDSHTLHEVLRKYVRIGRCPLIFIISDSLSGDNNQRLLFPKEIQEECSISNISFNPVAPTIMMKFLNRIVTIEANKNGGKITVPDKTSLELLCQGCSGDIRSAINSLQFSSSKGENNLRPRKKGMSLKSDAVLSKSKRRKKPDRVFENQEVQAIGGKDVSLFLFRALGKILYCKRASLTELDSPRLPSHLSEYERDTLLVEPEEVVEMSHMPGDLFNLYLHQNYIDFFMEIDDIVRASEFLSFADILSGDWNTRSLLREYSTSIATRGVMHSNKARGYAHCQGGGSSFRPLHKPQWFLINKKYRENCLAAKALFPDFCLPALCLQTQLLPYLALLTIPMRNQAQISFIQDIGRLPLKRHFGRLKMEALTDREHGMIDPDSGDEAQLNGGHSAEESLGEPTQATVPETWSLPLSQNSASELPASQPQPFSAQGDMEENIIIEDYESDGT

B1: ATR-ATRIP complex reconstituted in vitro from purified ATR and purified ATRIP (protein)
chain 1: not shown
chain 2: MAGTSAPGSKRRSEPPAPRPGPPPGTGHPPSKRARGFSAAAAPDPDDPFGAHGDFTADDLEELDTLASQALSQCPAAARDVSSDHKVHRLLDGMSKNPSGKNRETVPIKDNFELEVLQAQYKELKEKMKVMEEEVLIKNGEIKILRDSLHQTESVLEEQRRSHFLLEQEKTQALSDKEKEFSKKLQSLQSELQFKDAEMNELRTKLQTSERANKLAAPSVSHVSPRKNPSVVIKPEACSPQFGKTSFPTKESFSANMSLPHPCQTESGYKPLVGREDSKPHSLRGDSIKQEEAQKSFVDSWRQRSNTQGSILINLLLKQPLIPGSSLSLCHLLSSSSESPAGTPLQPPGFGSTLAGMSGLRTTGSYDGSFSLSALREAQNLAFTGLNLVARNECSRDGDPAEGGRRAFPLCQLPGAVHFLPLVQFFIGLHCQALQDLAAAKRSGAPGDSPTHSSCVSSGVETNPEDSVCILEGFSVTALSILQHLVCHSGAVVSLLLSGVGADSAAGEGNRSLVHRLSDGDMTSALRGVADDQGQHPLLKMLLHLLAFSSAATGHLQASVLTQCLKVLVKLAENTSCDFLPRFQCVFQVLPKCLSPETPLPSVLLAVELLSLLADHDQLAPQLCSHSEGCLLLLLYMYITSRPDRVALETQWLQLEQEVVWLLAKLGVQSPLPPVTGSNCQCNVEVVRALTVMLHRQWLTVRRAGGPPRTDQQRRTVRCLRDTVLLLHGLSQKDKLFMMHCVEVLHQFDQVMPGVSMLIRGLPDVTDCEEAALDDLCAAETDVEDPEVECG
phosphorylated Rad17 on DNA (Ser635P): human replication protein A (RPA) stimulates the phosphorylation of Rad17 by the ATR-ATRIP complex
